Where a chain is given by its changes, count along the chain named.
Assays:
[1] = target: T1, huNectin4-C1C2-V5 (C1C2 construct, lacking the Ig-like V domain) (human, UniProt Q96NY8 148-510); experiment: flow cytometry titration on Hu-Nectin4 IgC1C2-V5 sorted cells (row label printed IC50)
T1 construct: Expressed on CHO cells; also called Hu-Nectin4 IgC1C2-V5; Nectin4-C1C2-V5 sorted cells
T1 sequence: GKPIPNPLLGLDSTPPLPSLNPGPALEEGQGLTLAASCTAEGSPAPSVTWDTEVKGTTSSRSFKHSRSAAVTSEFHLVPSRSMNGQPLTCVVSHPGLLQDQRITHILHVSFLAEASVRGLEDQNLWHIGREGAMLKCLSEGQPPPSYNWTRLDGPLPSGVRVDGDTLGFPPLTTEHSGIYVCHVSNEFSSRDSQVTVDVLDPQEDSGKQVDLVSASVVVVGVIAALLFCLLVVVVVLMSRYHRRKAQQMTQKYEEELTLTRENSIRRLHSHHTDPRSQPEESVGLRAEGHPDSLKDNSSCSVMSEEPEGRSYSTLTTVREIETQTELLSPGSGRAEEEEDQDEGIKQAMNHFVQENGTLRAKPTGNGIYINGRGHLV

[2] = target: T2, human Nectin-4 Mutant 7bis (human, UniProt Q96NY8 32-510); experiment: binding to HEK-293T cells transfected with the Nectin-4 mutant
T2 construct: Expressed on transfected HEK-293T cells; also called A72P/G73N/K197T/S199A
T2 chain: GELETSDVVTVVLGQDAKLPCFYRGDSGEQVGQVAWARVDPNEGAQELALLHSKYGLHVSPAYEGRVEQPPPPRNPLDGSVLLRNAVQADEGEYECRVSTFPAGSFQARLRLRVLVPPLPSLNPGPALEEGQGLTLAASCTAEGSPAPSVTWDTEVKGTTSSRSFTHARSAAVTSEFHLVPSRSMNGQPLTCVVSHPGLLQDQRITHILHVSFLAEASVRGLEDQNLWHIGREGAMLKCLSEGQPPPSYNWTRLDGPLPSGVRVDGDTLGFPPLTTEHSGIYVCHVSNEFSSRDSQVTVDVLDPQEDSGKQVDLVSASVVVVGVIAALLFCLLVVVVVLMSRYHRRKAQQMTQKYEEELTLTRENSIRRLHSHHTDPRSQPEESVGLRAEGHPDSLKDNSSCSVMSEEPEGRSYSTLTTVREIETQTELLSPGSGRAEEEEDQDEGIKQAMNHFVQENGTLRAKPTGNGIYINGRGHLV

human Nectin-4 Mutant 7 = target: T3, human Nectin-4 Mutant 7 (human, UniProt Q96NY8 32-510); experiment: as above
T3 construct: Expressed on transfected HEK-293T cells; also called S195A/K197T/S199A
T3 chain: T2 chain with P41A, N42G, S164A

[3] = target: T4, wild-type human Nectin-4 on the CHO huNectin4 Cl.3C8 cell line (human, UniProt Q96NY8 32-510); experiment: flow cytometry titration on CHO cells expressing wild-type human Nectin-4 (huNectin4), median MFI
T4 construct: also called whole Nectin-4 protein; huNectin4 CI.3C8
T4 sequence: T2 chain with P41A, N42G, T166K, A168S
Experimental: The characterization of the binding of the antibodies on Nectin-4 domains was performed by flow cytometry using cells made to express the wild-type human Nectin-4 protein and cells made to express a modified Nectin-4 having the Ig-like C₂ type 1 and the Ig-like C₂ type 2 domains and lacking the Ig-like V domain (the C1C2 construct). The latter protein additionally bears a V5 tag for flow cytometry cell sorting, and cells were used as Nectin4-C1C2-V5 sorted cells.

[4] = target: T5, Mouse Nectin-4 on CHO cells (mouse, UniProt Q8R007 32-508); experiment: flow cytometry on CHO cells expressing mouse Nectin-4
T5 construct: also called mouse Nectin 4 protein
T5 sequence: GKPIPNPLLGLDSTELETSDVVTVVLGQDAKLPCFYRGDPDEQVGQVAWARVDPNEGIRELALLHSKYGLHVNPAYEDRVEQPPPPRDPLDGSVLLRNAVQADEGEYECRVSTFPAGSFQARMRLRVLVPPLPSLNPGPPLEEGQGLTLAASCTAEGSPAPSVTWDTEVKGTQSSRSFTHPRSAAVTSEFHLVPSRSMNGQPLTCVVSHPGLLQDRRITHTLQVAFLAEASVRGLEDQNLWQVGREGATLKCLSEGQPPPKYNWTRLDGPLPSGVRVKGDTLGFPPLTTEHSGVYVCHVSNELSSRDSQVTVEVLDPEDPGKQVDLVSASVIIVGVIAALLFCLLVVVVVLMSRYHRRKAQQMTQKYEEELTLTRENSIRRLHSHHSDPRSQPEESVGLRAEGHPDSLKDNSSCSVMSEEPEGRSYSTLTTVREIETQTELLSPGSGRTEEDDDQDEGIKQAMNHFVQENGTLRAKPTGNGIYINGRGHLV

[5] = target: T6, monomeric huNectin4-his-BirA protein (human, UniProt Q96NY8 32-349); experiment: SPR (Biacore T200), antibody captured on Protein A, monomeric huNectin4-his-BirA injected
T6 construct: also called Human Nectin4-His-BirA; huNectin4-BirA
T6 sequence: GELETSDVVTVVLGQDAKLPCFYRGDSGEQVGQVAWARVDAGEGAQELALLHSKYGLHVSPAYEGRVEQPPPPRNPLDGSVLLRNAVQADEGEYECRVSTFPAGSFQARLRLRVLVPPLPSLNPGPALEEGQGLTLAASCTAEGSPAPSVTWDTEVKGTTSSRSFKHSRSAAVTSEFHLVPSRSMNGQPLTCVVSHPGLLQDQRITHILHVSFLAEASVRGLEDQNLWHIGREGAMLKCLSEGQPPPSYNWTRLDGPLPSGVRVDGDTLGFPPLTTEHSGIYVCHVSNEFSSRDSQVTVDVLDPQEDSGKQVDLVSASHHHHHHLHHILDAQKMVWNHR
Experimental: Antibodies were tested for binding affinity to the wild-type human Nectin-4 protein by SPR (Surface Plasmon Resonance) methods. Measurements were performed on a Biacore T200 apparatus (Biacore GE Healthcare) at 25° C. Sensorgrams were analyzed with Biacore T100 Evaluation software. A CMR Sensor Chip with immobilized Protein A at about 600 RU was used. Anti-Nectin-4 antibodies were captured onto the Protein-A chip (antibodies diluted to 1 μg/ml in HBS-EP+1× buffer and injected over 120s at 40 μL/min). […] The chip was regenerated with NaOh 10 mM 2× for 30s at 40 μl/min. The sensorgram sets were fitted using the 1:1 kinetic binding model or two state reaction model, as a function of the profile of the curves.

[6] = target: T7, Rat Nectin-4 on CHO cells (rat, UniProt Q8R007 31-508 (mouse entry)); experiment: flow cytometry titration on CHO cells expressing rat Nectin-4, median MFI (PE)
T7 chain: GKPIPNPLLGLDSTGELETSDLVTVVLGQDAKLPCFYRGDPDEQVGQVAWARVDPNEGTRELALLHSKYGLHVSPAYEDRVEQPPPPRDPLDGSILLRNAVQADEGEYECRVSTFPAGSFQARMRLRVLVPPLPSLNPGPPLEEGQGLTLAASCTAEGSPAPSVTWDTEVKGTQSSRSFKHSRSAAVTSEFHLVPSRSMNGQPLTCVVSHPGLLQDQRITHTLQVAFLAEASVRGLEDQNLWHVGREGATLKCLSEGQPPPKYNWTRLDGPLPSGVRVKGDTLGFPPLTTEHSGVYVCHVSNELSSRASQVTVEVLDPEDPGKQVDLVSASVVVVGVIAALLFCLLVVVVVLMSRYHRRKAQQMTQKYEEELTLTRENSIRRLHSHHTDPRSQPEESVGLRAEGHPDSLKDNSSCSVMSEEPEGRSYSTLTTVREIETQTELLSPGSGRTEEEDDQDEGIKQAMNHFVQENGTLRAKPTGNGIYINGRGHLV

B1: antibody 5E7 (antibody, human IgG1, V domains shown)
VH: QVQLQQPGAELVKPGASVKLSCKASGYIFTSYWMHWVKQRPGQGLEWIGEIDPSDSYTNYNQKFKGKATLTLDKSSSTTYMQLSSLTSEDSAVYYCVRGYGNYGDYWGQGTTLTVSS
VL: DVVMTQAAFSNPVTLGTSASISCRSSKSLLHSNGITYLYWYLQKPGQSPQLLIYQMSNLASGVPDRFSSSGSGTDFTLRISRVEAEDVGVYYCAQNLELPWTFGGGTKLEIK
notes: Mouse variable domains; also called mAb6; Mab6
[1]
  EC50: 0.0524 µg/mL
[2]
  binding result: no binding
Human Nectin-4 Mutant 7
  binding result: no binding
[3]
  EC50 (read off the curve): ~0.05 µg/mL
[4]
  binding result: no binding
[5]
  Kd: 4.8 nM
  koff: 0.003 s⁻¹
  kon: 620000 M⁻¹ s⁻¹

B2: antibody 10B12 (antibody, human IgG1, V domains shown)
VH: B1 VH with I28T, L72V, T79A
VL: B1 VL with V2I
notes: Mouse variable domains; also called mAb7; Mab7
[1]
  EC50: 0.0197 µg/mL
[2]
  binding result: no binding
Human Nectin-4 Mutant 7
  binding result: no binding
[3]
  EC50 (read off the curve): ~0.02 µg/mL
[4]
  binding result: no binding
[5]
  Kd: 12 nM
  koff: 0.01 s⁻¹
  kon: 860000 M⁻¹ s⁻¹

B3: Enfortumab (ASG-22ME) (antibody, V domains shown)
VH: EVQLVESGGGLVQPGGSLRLSCAASGFTFSSYNMNWVRQAPGKGLEWVSYISSSSSTIYYADSVKGRFTISRDNAKNSLSLQMNSLRDEDTAVYYCARAYYYGMDVWGQGTTVTVSS
VL: DIQMTQSPSSVSASVGDRVTITCRASQGISGWLAWYQQKPGKAPKFLIYAASTLQSGVPSRFSGSGSGTDFTLTISSLQPEDFATYYCQQANSFPPTFGGGTKVEIKR
[6]
  EC50 (read off the curve): ~0.2 µg/mL

B4: mAb3 (antibody, V domains shown)
VH: B3 VH
VL: B3 VL
[1]
  EC50: 0.156 µg/mL
[3]
  EC50 (read off the curve): ~0.2 µg/mL

Source: US20240325557A1 (INNATE PHARMA, published 2024)
